Reference: US20140193421A1 (EISAI R AND D MANAGEMENT, published 2014)
Where a chain is given by its changes, count along the chain named. Where no end group is shown, it is not given here. The star is where a group is joined. Biotin = O=C1N[C@H]2[C@H](CS[C@H]2CCCCC(=O)*)N1

Legend:
human XCR1-EGFP [1] = target: T1, human XCR1-EGFP (human, UniProt P46094 1-333, EGFP fused to the receptor is not carried in the letters.); test: cell-based or functional assay
T1 sequence: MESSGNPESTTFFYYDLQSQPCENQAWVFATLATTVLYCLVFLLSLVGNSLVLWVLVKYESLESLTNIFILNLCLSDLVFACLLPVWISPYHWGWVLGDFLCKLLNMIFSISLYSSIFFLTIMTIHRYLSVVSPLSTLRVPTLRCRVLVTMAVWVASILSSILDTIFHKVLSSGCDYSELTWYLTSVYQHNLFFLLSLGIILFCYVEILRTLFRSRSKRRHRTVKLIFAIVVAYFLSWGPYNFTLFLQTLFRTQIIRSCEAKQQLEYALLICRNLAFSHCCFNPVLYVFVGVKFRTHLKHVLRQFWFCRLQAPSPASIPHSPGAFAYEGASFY

human XCR1-EGFP [2] = target: T1, human XCR1-EGFP; test: competitive ligand binding assay, FACS on human XCR1-EGFP BaF3 cells; competitor human XCL1-SSS-His(10) at 0.12 µg/mL
Procedure: The competitive ligand binding assay was performed according to the following procedure. Parent BaF3 cells and human XCR1-EGFP-expressing BaF3 cells were mixed at a 1:1 ratio, and suspended in a FACS buffer (1% FBS-containing PBS⁻ (Sigma)). The cells were blocked for 10 minutes on ice with a FACS buffer containing 10% rat serum. The cells were then incubated for 20 minutes on ice with mouse anti-human XCR1 antibodies (2H6, 5G7, or 11H2), mouse isotype control antibodies, IgG2a (eBioscience, #16-4724-85), or IgG2b (eBioscience, #16-4732-85) at various concentrations from 0 to 150 μg/mL. Next the cells were incubated for 30 minutes on ice with human XCL1-SSS-His(10) at a saturating concentration of 0.12 μg/mL. The cells were washed with the FACS buffer three times, and then incubated for 20 minutes on ice with anti-6×His tag antibody (BETHYL, #A190-114A, diluted at 1:100 in FACS buffer). […] Next the cells were once again washed three times with the FACS buffer, and then suspended in FACS buffer. The fluorescence intensity was measured using a FACSCanto II cell analyzer (BD Bioscience).

human XCR1-EGFP [3] = target: T1, human XCR1-EGFP; test: cell-based or functional assay; remark: listed apart in the source
[4] = target: T2, human XCR1 peptide 175-186 CDYSELTWYLTS (human); test: peptide ELISA on streptavidin plates
T2 peptide: Biotin-GSGSCDYSELTWYLTS
Procedure: (§1) Streptavidin-coated microtiter plates (Perkin Elmer) were coated with 50 μg/mL of peptide per well in a volume of 50 μL, and incubated at room temperature for 1 hour. The peptide solution was removed and PBS⁻ containing 4% Block-Ace was added to each well and incubated overnight at 4° C. Each well was washed three times with an ELISA wash buffer (0.02% Tween20 in PBS−). Anti-human XCR1 antibodies (2H6, 5G7, or 11H2) were added to each well in amount of 10 μg/mL, and incubated for 6 hours at room temperature. Each well was washed three times with the ELISA wash buffer. Horseradish peroxidase-conjugated donkey anti-mouse IgG antibody (Jackson, #715-035-150), diluted 1:5,000 in the ELISA wash buffer, was added to each well and incubated for 1 hour at room temperature. Each well was washed three times with the ELISA wash buffer. TMBZ (3,3′,5,5′ tetramethyl benzidine; Sigma) was added to each well and incubated at room temperature. The reaction was stopped with 2NH₂SO₄, and A₄₅₀ₙₘ was measured by Arvo plate reader (PerkinElmer).

[5] = target: T3, human XCR1 peptide 172-183 SSGCDYSELTWY (human); test: peptide ELISA on streptavidin plates
T3 peptide: Biotin-GSGSSSGCDYSELTWY
Procedure: as §1

[6] = target: T4, human XCR1 peptide 11-22 TFFYYDLQSQPC (human); test: peptide ELISA on streptavidin plates
T4 peptide: Biotin-GSGSTFFYYDLQSQPC
Procedure: as §1

[7] = target: T5, human XCR1 peptide 19-30 SQPCENQAWVFA (human); test: peptide ELISA on streptavidin plates
T5 peptide: Biotin-GSGSSQPCENQAWVFA
Procedure: as §1

human XCR1-EGFP [8] = target: T1, human XCR1-EGFP; test: cell-based or functional assay; remark: listed apart in the source

B1: mouse anti-human XCR1 antibody (11H2) (antibody, IgG2a, V domains shown)
VH: EVQLQQSGPVLVKPGASVKMSCKASGYTFTDYYVNWVKQSHGASLEWIGVSNPKNGDKSYNQKFKGKATLTVDKSSSTAYMELNSLTSEDSAVYYCARGLYYAGTYGYFDVWGTGTTVTVSS
VL: DIQMTQATSSLSASLGDRVTISCRASQDISNYLNWYQQKPDGTVKLLIYYTSRLHSGVPSRFRGSGSGTDFSLTISNLEQEDIATYFCQQGKTLPRTLGGGTKLEIK
IC50 of growth suppression with saporin-conjugated Fab anti-mouse IgG secondary antibody (human XCR1-EGFP [1]): 0.155 nM
concentration of complete inhibition of cell migration, chemotaxis assay (human XCR1-EGFP [1]): ~3 µg/mL
IC50 (human XCR1-EGFP [2]): 23.8 nM
IC50 (nM), chemotaxis assay (human XCR1-EGFP [3]): 0.99 nM
IC90 (nM), chemotaxis assay (human XCR1-EGFP [3]): 6.32 nM
binding result [4]: no binding (tested: 10 µg/mL)
binding result [5]: no binding (tested: 10 µg/mL)
binding result [6]: no binding (tested: 10 µg/mL)
binding result [7]: no binding (tested: 10 µg/mL)

B2: mouse anti-human XCR1 antibody (2H6) (antibody, IgG2b, V domains shown)
VH: QAYLQQSGAELVRPGASVKMSCKASGYTFSSHNMHWIKQTLRQGLEWIGAIYPGKGNTSYNQKFKGKATLTVDKSSSTAYMQLSSLTSEDSAVYFCARWGSVVGDWYFDVWGTGTTVTVSS
VL: DVVVTQTPLSLPVSLGDQASISCRSSQSLVHSNGNTYLHWYLQKPGQSPKLLIYRVSNRFSGVPDRFSGSGLGRDFTLKISRVEAEDLGVYFCSQSTFVPWTFGGGTKLEIK
IC50 of growth suppression with saporin-conjugated Fab anti-mouse IgG secondary antibody (human XCR1-EGFP [1]): 0.141 nM
concentration of complete inhibition of cell migration, chemotaxis assay (human XCR1-EGFP [1]): ~3 µg/mL
IC50 (human XCR1-EGFP [2]): 37 nM
IC50 (nM), chemotaxis assay (human XCR1-EGFP [3]): 1.28 nM
IC90 (nM), chemotaxis assay (human XCR1-EGFP [3]): 7.6 nM

B3: mouse anti-human XCR1 antibody (5G7) (antibody, IgG2b, V domains shown)
VH: B2 VH with S30T, M34L, I37V, L41P, E46Q, K55N, S59A, E89D
VL: DVVMTQTPLSLPVTLGNQASIFCRSSLGLVHRNGNTYLHWYLQKPGQSPKLLIYKVSHRFSGVPDRFSGSGSGTDFTLKISRVEAEDLGVYFCSQSTHVPWTFGGGTKLEIK
notes: also called 5G7 Mab; parent antibody 5G7
IC50 of growth suppression with saporin-conjugated Fab anti-mouse IgG secondary antibody (human XCR1-EGFP [1]): 0.017 nM
concentration of complete inhibition of cell migration, chemotaxis assay (human XCR1-EGFP [1]): ~3 µg/mL
IC50 (human XCR1-EGFP [2]): 6.9 nM
IC50 (nM), chemotaxis assay (human XCR1-EGFP [3]): 0.63 nM
IC90 (nM), chemotaxis assay (human XCR1-EGFP [3]): 2.52 nM

B4: humanized anti-human XCR1 antibody HK1L2 (antibody, human IgG2, kappa, V domains shown)
VH: QVQLVQSGAEVKKPGASVKVSCKASGYTFTSHNLHWVRQAPGQRLEWMGAIYPGNGNTAYNQKFKGRVTITRDTSASTAYMELSSLRSEDTAVYYCARWGSVVGDWYFDVWGQGTLVTVSS
VL: DVVMTQSPLSLPVTLGQPASISCRSSLGLVHRNGNTYLHWFQQRPGQSPRLLIYKVSHRFSGVPDRFSGSGSGTDFTLKISRVEAEDVGVYYCSQSTHVPWTFGQGTKVEIKR
IC50 (nM), chemotaxis assay, Assay-1 (human XCR1-EGFP [8]): 0.1 nM
IC50 (nM), chemotaxis assay, Assay-2 (human XCR1-EGFP [8]): 0.25 nM
IC50 (nM), chemotaxis assay, Assay-3 (human XCR1-EGFP [8]): 0.12 nM

B5: humanized anti-human XCR1 antibody HK5L5 (antibody, human IgG2, kappa, V domains shown)
VH: B4 VH with R44G, I70M, A76T, A79V
VL: B4 VL with V2I, S7T, L15P, F41Y, Q42L, R44K, R50Q
IC50 (nM), chemotaxis assay, Assay-1 (human XCR1-EGFP [8]): 0.52 nM
IC50 (nM), chemotaxis assay, Assay-2 (human XCR1-EGFP [8]): 0.36 nM
IC50 (nM), chemotaxis assay, Assay-3 (human XCR1-EGFP [8]): 0.2 nM
